The results in this text go back to patent publication JP2012055312A.

This test addresses ビオチン−IL−6 (UniProt P05231). The experiment in a line: Luminex-based assay of IL-6 binding to IL-6 receptor (solid-phase sIL-6R/gp80).
UniProt P05231, sequence (P05231 30-212 limits assumed): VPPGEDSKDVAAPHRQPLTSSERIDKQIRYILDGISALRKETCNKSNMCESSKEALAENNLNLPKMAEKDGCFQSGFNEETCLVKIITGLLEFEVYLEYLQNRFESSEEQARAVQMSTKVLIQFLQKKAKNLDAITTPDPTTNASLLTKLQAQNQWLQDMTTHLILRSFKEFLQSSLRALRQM

B1: キメラCLB8 (antibody, V domains shown)
VH: EVQLVESGGKLLKPGGSLKLSCAASGFTFSSFAMSWFRQSPEKRLEWVAEISSGGSYTYYPDTVTGRFTISRDNAKNTLYLEMSSLRSEDTAMYYCARGLWGYYALDYWGQGTSVTVSS
VL: QIVLIQSPAIMSASPGEKVTMTCSASSSVSYMYWYQQKPGSSPRLLIYDTSNLASGVPVRFSGSGSGTSYSLTISRMEAEDAATYYCQQWSGYPYTFGGGTKLEIK
B1 returned a percent inhibition of IL-6 binding to IL-6 receptor of 100%.
